Reference: patent US20030124121A1 (IMMUNEX, published 2003)

Legend:
[1] = molecular target: T1, human IL-4 receptor (human, UniProt P24394 26-232, limits assumed); assay: hybridoma identification; assay not described
T1 construct: extracellular domain is 1 to 207 or -2 to 207 in that numbering; also called huIL-4R; IL-4Ralpha

[2] = molecular target: T1, human IL-4 receptor; assay: hybridoma screen for human gamma/kappa specific to IL-4R
Text: The mouse was sacrificed, and spleen cells were extracted and fused with the murine myeloma cell line P3x63Ag8.653 (ATCC CRL 1580). A conventional PEG fusion protocol was followed. The fusion was screened for HuIgG and HuKappa, followed by a rescreen for human gamma and kappa specific to IL-4R. […] Techniques for altering (switching) the subclass/isotype of an antibody are known. […] Sequence information for a human IgG4 heavy chain is presented, for example, in Ellison et al. (DNA Vol. 1, no. 1, pp 11-18, 1981), which is hereby incorporated by reference herein.

[3] = molecular target: T1, human IL-4 receptor; assay: assay not described

binding result [1] | Binder | further results
binds | MAb 27A1 (antibody, IgG1, V domains shown, Fully human antibody) VH: QVQLVESGGGVVQPGRSLRLSCSASGFTFSRYGMHWVRQAPGRGLEWVAIIWFEGNNQYYADSVKGRFTVSRDNSKNTLYLEMNSLRAEDTAVYYCARGKYYFDYWGQGTLVTVSS VL: not shown | 
 | MAb 12B5 (antibody, human IgG1, V domains shown, also called clone 12B5) VH: EVQLVQSGGGLVHPGGSLRLSCAGSGFTFSRNAMFWVRQAPGKGLEWVSGIGTGGATNYADSVKGRFTISRDNAKNSLYLQMNSLRAEDMAVYYCARGRYYFDYWGQGTLVTVSS VL: not shown | binding result [2]: binds
binds | MAb 5A1 (antibody, IgG1, V domains shown, Fully human antibody) VH: EVQLVQSGGGLVHPGGSLRLTCAGSGFTFSNFVMHWVRQTPGQGLEWVSAIGTGGGTYYADSVKGRFTISRDNAKSSLYLQMNSLRAEDMAVYYCARDRPMVRGVIIDYFDYWGQGTLVTVSS VL: EIVLTQSPATLSLSPGERATLSCRASQSVSSYLAWYQQKPGQAPRLLIYHASNRATGIPARFSGSGSGTDFTLTISSLEPEDFAVYYCQQRSNWPLTFGGGTKVEIK | 
binds | MAb 63 (antibody, IgM, V domains shown, Fully human antibody) VH: EVQVLESGGNLVQPGGSLRLSCAASGFTFSSYAMSWVRQAPGKGLEWVSSITGSGGSTYYADSVKGRFTISRDNSKNTLYLQMNSLRAEDTAIFYCAKDNRGFFHYWGQGTLVTVSS VL: DIQMTQSPSSVSASVGDRVTITCRASQGISTWLAWYQHKPGKAPKLLIYVASSLQSGVPSRFSGSGSGTDFTLTISSLQPEDFATYYCQQANSFPFTFGPGTKVDIK | 
 | MAb 1B7 (antibody, V domains shown, Derived from MAb 63; differs from it only in the light chain; heavy chain identical to MAb 63) VH: EVQVLESGGNLVQPGGSLRLSCAASGFTFSSYAMSWVRQAPGKGLEWVSSITGSGGSTYYADSVKGRFTISRDNSKNTLYLQMNSLRAEDTAIFYCAKDNRGFFHYWGQGTLVTVSS VL: EIVLTQSPSSVSASVGDRVTITCRASQGISNRLAWYQQKPGKAPKLLIYIASILQRGVPSRFSGSGSGTDFTLTITRLQPEDFATYYCQQANSFPFTFGPGTKVDIK | binding result [3]: binds
